From US6517838B1, “Decorin binding protein essential peptides and methods of use” (The Texas A&M University System, priority 2000, dated 2003)

Tests used:
[1] = system: B. burgdorferi strain B31; assay: Blood cultures for spirochetes after infection of immunized mice; assay type: in vivo; conditions: immunized C3H/HeJ mice, blood 7 days post infection with 10^4 Borrelia i.d.
Procedure: (§1) Mice were immunized with recombinant DbpA (SEQ ID 1), P2 (SEQ ID 3), P4 (SEQ ID 5), P5 (SEQ ID 6), P4/P5 (SEQ ID 5/SEQ ID 6), P9 (SEQ ID 10), or the corresponding lysine modified counterparts (P2 Mod, P4 Mod, P5 Mod or P9 Mod) using the immunization schedule established by Hanson (11). Briefly, mice were immunized with 20 μg of protein or peptide in complete Freund's adjuvant (CFA) (Week 1), boosted at week 4 with the same dose in incomplete Freund's adjuvant (IFA) and infected at week 6.
(§2) Low-passage B. burgdorferi strain B31 (passage 5) was used in this study and cultured in BSK II (Barbour-Stoenner-Kelly) medium at 34° C. (22). Bacterial cultures were incubated in CO2-enriched atmosphere in a GasPak chamber (BBL, Baltimore, Md.) containing BBL GasPak Plus envelopes and a GasPak anaerobic indicator (Beckton dickinson, Cockeysville, Md.) until the cells reached log phase. Bacterial counts were determined using dark field microscopy and a Petroff-Hausser chamber.
(§3) Mice (15 mice/group) were anesthetized with Metofane (methoxyflurane; Pitman-Moore, Mundelein, Ill.) and 10 mice/ group were infected i.d. at the base of the tail with 10^4 Borrelia in 100 μl of media 6 six weeks after the first immunization. The remaining 5 mice/group were tested for a DTH response to recombinant DbpA. Following infection, mice were bled 7 and 14 days postinfection. […]

[2] = system: B. burgdorferi strain B31; assay: Arthritis assessment, histopathology of hind tibiotarsal joints of immunized infected mice; assay type: in vivo
Procedure: as §1
Mice (15 mice/group) were anesthetized with Metofane (methoxyflurane; Pitman-Moore, Mundelein, Ill.) and 10 mice/ group were infected i.d. at the base of the tail with 10^4 Borrelia in 100 μl of media 6 six weeks after the first immunization. The remaining 5 mice/group were tested for a DTH response to recombinant DbpA. Following infection, mice were bled 7 and 14 days postinfection. Serum was collected for antibody analysis and blood cultured for the detection of live spirochetes by inoculating 5 ml of BSK II medium with 50 μl of blood from each infected mouse and cultured for 2 weeks at 34° C. as described above. Also on day 14 postinfection, mice were sacrificed and one hind tibiotarsal joint, heart, bladder, and a 3 mm skin biopsy from the ear were aseptically removed and inoculated into separate tubes containing 6 ml of BSK II medium with antibiotics (50 μg/ml rifampacin and 100 μg/ml phosphomycin (Sigma), and incubated for 2 weeks at 34° C. as described above. Evidence of arthritis was determined by histopathological examination of formalin-fixed hind tibiotarsal joint samples.
Evidence of arthritis was determined by histopathological examination of formalin-fixed hind tibiotarsal joint samples. Tissues for histological examination were embedded in paraffin and stained with hematoxylin and eosin. All sections were examined without knowledge of the vaccination status of the mouse. Arthritis was scored by one of two methods. A positive/negative assessment was used, as well as assignment of an arthritis severity score. Joints were scored according to the levels of infiltrate (neutrophils) as follows: 0, no arthritis, 1, minimal or rare (≦10% tissue involvement); 2, mild (10-20%); […]; and 4, severe (>50%).
A similar trend was also observed for joints examined for arthritis (Table I). DbpA-(SEQ ID 1), P4-(SEQ ID 5), and P5-(SEQ ID 6) immunized mice had the lowest arthritis ratings (0.2, 1.2, and 0.4, respectively) and lowest arthritis incidence (20, 60, and 20%, respectively).

[3] = system: recombinant DbpA; assay: Delayed-type hypersensitivity (DTH) to DbpA, footpad swelling in immunized mice; assay type: in vivo, B. burgdorferi
Procedure: as §1
Native C3H/HeJ mice immunized with DbpA (SEQ ID 1), P2 (SEQ ID 3), P4 (SEQ ID 5), P5 (SEQ ID 6), P4/P5 (SEQ ID 5/SEQ ID 6), P9 (SEQ ID 10), or the corresponding lysine modified counterparts (P2 Mod, P4 Mod, P5 Mod or P9 Mod) were challenged with 2 μg of recombinant DbpA in PBS (50 μl/footpad) 7 weeks after the initial immunization. All footpads were measured before and 24 h after challenge using a spring-loaded micrometer (Mitutoyo, Tokyo, Japan) as described (23). The mice were anesthetized as described above during footpad measurements and injections. Swelling was determined by subtracting the footpad measurements before challenge from those taken 24 h after challenge.
DTH is an in vivo method of testing T cell-dependent immune responses that are manifested by inflammation at the site of antigenic challenge. Mice immunized with DbpA (SEQ ID 1), P2 (SEQ ID 3), P4 (SEQ ID 5), P5 (SEQ ID 6), P4/P5 (SEQ ID 5/SEQ ID 6) combined, P9 (SEQ ID 10), or the corresponding lysine-modified peptides were challenged in the footpad with 2 μg of recombinant DbpA (SEQ ID 1). Footpad measurements were taken before and after challenge as described above. DbpA (SEQ ID 1)-immunized mice developed a significant footpad swelling of 53.3±3.5 (not shown) compared to mice immunized with adjuvant alone or naive mice receiving only the DbpA (SEQ ID 1) challenge. Peptide-immunized mice, with the exception of P2 (SEQ ID 3), also developed a significant DTH response to DbpA (SEQ ID 1) compared to the lysine-modified controls.

[4] = system: polyclonal, rabbit anti-DbpA (625); assay: ELISA recognition of DbpA-peptides by polyclonal anti-DbpA serum; assay type: binding; conditions: 2 μg peptide/well, 1:1000 anti-DbpA serum, FIG. 2
Procedure: Immulon-1 microtiter plate wells (Dynatech Labs, Chantilly, Va.) were coated with 2.0 μg of each peptide in 50 μl of PBS overnight at 4° C. The wells were washed and then blocked with 400 μl of Super Block (Pierce, Rockford, Ill.). All incubations were done at 37° C. and all dilutions were made using Super Block. After washing, 100 μl of a 1:1000 dilution of polyclonal, rabbit anti-DbpA (625) (17) was added for 1 hr. After washing, 100 μl of a 1:1000 dilution of AP-conjugated anti-rabbit IgG (Bio-Rad, Hercules, Calif.) was added for 1 hr. The wells were washed and incubated with 100 μl of a 1 mg/ml of Sigma 104 phosphatase substrate (Sigma Chemical Co., St. Louis, Mo.) dissolved in 1 M diethanolamine, 0.5 mM MgCl2, pH 9.8. Plates were washed with 0.05% PBS-Tween 20 between all steps. The absorbance at 410 nm was determined in a Microplate Reader (Molecular Devices, Menlo Park, Calif.).
Immunizations utilizing peptide formulations require that immune responses to the peptide(s) result in recognition of native-protein epitopes. […] Cross-reactivity of peptide epitopes with native protein was examined by ELISA.

[5] = system: B. burgdorferi strain B31; assay: Joint cultures for spirochetes after infection of immunized mice; assay type: in vivo; conditions: immunized C3H/HeJ mice, joints 14 days post infection
Procedure: as §1, §2, §3

[6] = molecular target: T1, decorin (Bos taurus, UniProt P21793); assay: Western ligand blot with digoxigenin-labeled decorin; assay type: binding, bovine; conditions: SDS-PAGE reducing, probed with digoxigenin-labeled decorin
T1 construct: Decorin from bovine fetal skin was purified and stored in 4 M guanidine hydrochloride; from tissue; host or cells: decorin from bovine fetal skin; DbpA made in E. coli JM101
T1 sequence (P21793 31-360): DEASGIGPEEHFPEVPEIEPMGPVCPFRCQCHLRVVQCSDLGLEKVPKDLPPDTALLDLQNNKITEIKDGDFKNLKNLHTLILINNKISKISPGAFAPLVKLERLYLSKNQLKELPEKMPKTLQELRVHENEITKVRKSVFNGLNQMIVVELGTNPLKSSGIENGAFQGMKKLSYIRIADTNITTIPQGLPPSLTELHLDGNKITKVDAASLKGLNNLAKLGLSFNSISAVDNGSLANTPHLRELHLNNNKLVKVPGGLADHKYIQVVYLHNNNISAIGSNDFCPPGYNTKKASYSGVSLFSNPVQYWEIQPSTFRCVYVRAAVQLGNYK
Procedure: Decorin from bovine fetal skin was purified and stored in 4 M guanidine hydrochloride at −80° C. and dialyzed extensively against PBS before use. Decorin was labeled with digoxigenin-3-O-methylcarbonyl-ε-aminocaproic acid-N-hydroxy-succinimide ester (digoxigenin) (Boehringer Mannheim, Indianapolis. Ind.) according to the manufacturer's instructions and stored at −20° C. To label decorin with biotin, 7.5 mg of NHS-LC-Biotin (sulfosuccinimidyl-6-(biotinamido) hexanoate) (Pierce, Rockford, Ill.) was dissolved in 100 μl of dimethyl sulfoxide and combined with 0.5 mg of decorin and 0.5 ml of 0.2 M sodium borate (pH 8.0) in a total reaction volume of 1 ml.
Proteins (purified DbpA, DbpA site-directed mutants and OspC) were subjected to SDS-PAGE (reducing conditions) and probed with rabbit anti-DbpA polyclonal sera (R625) or with digoxigenin-labeled decorin.
Further, the side chains of lysine residues were chemically modified and the binding properties of the resulting protein examined. […] Both forms of DbpA migrated as two bands, monomers at 20 and 21 kDa and dimers at 40 and 42 kDa for DbpA and chemically modified DbpA (K-mod), respectively. The decorin binding activity of the DbpA and lysine-modified DbpA was examined in a Western ligand blot assay (FIG. 6B).

B1: DbpA: recombinant decorin binding protein A of B. burgdorferi strain 297, N-terminal His-tag fusion (protein)
chain: MIKCNNKTFNNLLKLTILVNLLISCGLTGATKIKLESSAKAIVDEIDAIKKKAASMGVNFDAFKDKKTGSGVSENPFILEAKVRATTVAEKFVIAIEEEATKLKETGSSGEFSAMYDLMFEVSKPLQELGIQEMTKTVSMAAEENPPTTAQGVLEIAKKMREKLQRVHKKNQDTLKKKNTEDSTAKS
modifications: N-terminal His-tag; Borrelia Burgdorferi
[1]
  positive blood cultures: 50-60%
[2]; immunized infected mice
  arthritis incidence and severity (in words): lowest
[2]; immunized mice, day 14 post infection, tibiotarsal joint histology
  % Incidence (arthritis): 20%
[2]; severity score 0-4 by neutrophil infiltrate, day 14 post infection
  Mean Arthritis Rating: 0.2
[3]; C3H/HeJ mice immunized with 20 μg, challenged with 2 μg recombinant DbpA in footpad, 24 h
  DTH response to DbpA (in words): significant inflammation
[3]; C3H/HeJ mice, 24 h after challenge with 2 μg recombinant DbpA, mean±SE
  footpad swelling: 53.3±3.5
[4]
  recognition by anti-DbpA serum (ELISA, O.D. 410 nm): recognized
[5]
  positive joint cultures: 20%
[6]
  decorin binding in Western ligand blot: bound digoxigenin-labeled decorin
